Test results from patent US20260167731A1 (DOMAIN THERAPEUTICS, published 2026).
Several values for one entry are separate records, joined by “and”; a condition that tells them apart may be missing. Equal entries are not always repeated.

B1: anti-CCR8 mAb 2-11 (antibody, V domains shown)
VH: EVQLQQSGPELVKPGASVKISCKASVYSFTGSYMHWVKQSHVKSLEWIGRINPYNGATSYNQNFKDKASLTVDKSSSTAYMELHSLTSEDSAVYYCATTLLRLLDYWGQGTTLTVSS
VL: DIVMTQAAFSNPVTLGTSASISCRSSKSLLHSNGITYLYWYLQKPGQSPQLLIYQMSNLASGVPDRFSSSGSGTDFTLRISRVEAEDVGVYYCAQNLELPWTFGGGTKLEIK
B2: humanized anti-CCR8 mAb 2-14 (antibody, human IgG1, kappa, V domains shown)
VH: QVQLVQSGPEVVKPGASVKVSCKTSGYTFTEYTIHWVRQAPGQSLEWVGGINPNNGNTRYDQKFQGRVTITRDKSASTAYMELRSLTSEDTAVYYCARVARSSGSGPYAMDYWGQGTTVTVSS
VL: DVVMTQSPLSLPVTLGDQASISCRCSQSLLHTNGDTYLHWYLQRPGQSPRLLIYKVSNRFSGVPDRFSGSGSGTDFTLKISRVEAEDVGVYFCSQSTHVPYTFGGGTKVEIKR
notes: Humanized, human IgG1 / kappa
B3: anti-CCR8 mAb 2-4 (antibody, V domains shown)
VH: EVQLQQSGPELVKPGASVKISCKTSGYTFTEYTIHWVKQSHGESLEWVGGINPNNGNTRYDQKFKGKATLTIDKSSSPAYMELRSLTSEDSAVYYCARVARSSGSGPYAMDYWGQGTSVTVSS
VL: DVVMTQTPLSLPVSLGDQASISCRCTQSLLHTNGDTYLHWYLQKPGQSPKLLIYKVSNRFSGVPDRFSGSGSGTDFTLKISRVEAEDLGVYFCSQSTHVPYTFGGGTKLEIK

Experiments:
human CCR8 [1] = molecular target: T1, human CCR8 (human, UniProt P51685 1-355); assay: cell-based or functional assay
human CCR8 [2] = molecular target: T1, human CCR8; assay: cell-based or functional assay; remark: listed apart in the source
human CCR8 [3] = molecular target: T1, human CCR8; assay: cell-based or functional assay; remark: listed apart in the source
human CCR8 [4] = molecular target: T1, human CCR8; assay: flow cytometry, inhibition of hCCL1-AF647 binding to hCCR8 CHO cells
Summary of the method: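 hCCR8-transfected CHO cells preincubated 30 min at 4 °C with anti-CCR8 mAb from 10 μg/mL, 1/3 dilutions, 8 concentrations. Bound CCL1 quantified by flow cytometry. IC₅₀ from sigmoidal variable-slope fit.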

human CCR8 [5] = molecular target: T1, human CCR8; assay: cell-based or functional assay; remark: listed apart in the source
human CCR8 [6] = molecular target: T1, human CCR8; assay: flow cytometry, hCCR8 transfected CHOK1 cells
Summary of the method: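 Flow cytometry read fluorescent secondary antibody (anti-mouse Alexa 488 or anti-human Fc PE) after washing, with matched isotype controls included.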

human CCR8 [7] = molecular target: T1, human CCR8; assay: flow cytometry, HUT78 cells (endogenous CCR8)
Protocol: The same staining protocol was applied on human CCR8 transfected CHO cell line versus wild type CHO cell line, cutaneous T cell lymphoma HUT78 cell line and human activated T cell model.
Briefly, 1·10⁵ cells per well in a 96 well plate were incubated with a dilution of unconjugated anti-CCR8 mAb at 10 μg/mL then diluted at 1/3.33, 4 dilution points (during 30 min at 4° C.). In human activated T cells model, prior to mAb incubation, cells were first incubated with 200 nM of hCCL1 (R&D Systems, Minneapolis, MN, USA) or buffer PBS (Invitrogen by Thermofisher Scientific, Illkirch-Graffenstaden, France) supplemented by 2% Fetal Bovine Serum (Invitrogen by Thermofisher Scientific, Illkirch-Graffenstaden, France) and 2 mM EDTA (Invitrogen by Thermofisher Scientific, Illkirch-Graffenstaden, France) during 1 hour at 4° C. To determine EC50 value, 8 concentrations of anti-CCR8 mAb were tested. Unbound antibodies were washed away with PBS (Invitrogen by Thermofisher Scientific, Illkirch-Graffenstaden, France) supplemented by 2% Fetal Bovine Serum (Invitrogen by Thermofisher Scientific, Illkirch-Graffenstaden, France) and 2 mM EDTA (Invitrogen by Thermofisher Scientific, Illkirch-Graffenstaden, France). Subsequently, cells are centrifuged (5 min at 400 g) and bound antibody is detected with F(ab′)₂-Goat anti-Mouse IgG (H+L) Cross-Adsorbed Secondary Antibody, Alexa Fluor 488 (dilution 1/500) (Invitrogen by Thermofisher Scientific, Illkirch-Graffenstaden, France) or with F(ab′)₂-Goat anti-Human IgG Fc Secondary Antibody, PE (Invitrogen by Thermofisher Scientific, Illkirch-Graffenstaden, France) (dilution 1/1000) at 4° C. for 30 min. Detection reagent is washed away and cells are centrifuged (5 min at 400 g) and resuspended in 30 μL PBS. Bound detection antibody is quantified on a MacsQuant16 (Miltenyi, Gladbach, Germany) (B1 or B2 channel, 5000 events per acquisition). During the experiment, the respective isotype mAb controls (mouse IgG1, mouse IgG2a, mouse IgG2b, mouse IgG3 or human IgG1) (Biolegend, Amsterdam, The Netherlands) are included to exclude any unspecific binding events.
EC50 values were determined via nonlinear fit “log(agonist)vs.response−Variable slope (four parameters)” function of Graphpad prism. EC50 values were not constantly determined in the same experiments.

hCCR8 SNAP-tag [8] = molecular target: T2, hCCR8 SNAP-tag (human, UniProt P51685 1-355, SNAP-tag labelled with Lumi4-Terbium); assay: HTRF Tag-lite, inhibition of hCCL1-AF647 binding to SNAP-tag hCCR8 on HEK-293
T2 construct: also called human CCR8 engineered with a SNAP-tag at the N-terminus; not shown: SNAP-tag at the N-terminus
Protocol: The inhibition of CCL1 binding to hCCR8 was evaluated with the Tag-Lite® technology from Cisbio (Revvity). Human CCR8 is engineered with a SNAP-tag at the N-terminus of the GPCR. hCCR8 SNAP-tag is transiently transfected on HEK-293 cell line using FuGene® (Promega, Madison, WI, USA). 48 hours after transfection, cells are labeled with the substrate Lumi4-Terbium® (Cisbio, Codolet, France) which covalently reacts with the SNAP-tag, for 1 h at 37° C. […] The Kd is previously obtained in a saturation binding assay on the same cells. […] The plate is next incubated at 21° C. for 2 h. Detection of HTRF signal is performed on the multiplate reader EnVision (PerkinElmer, Waltham, MA, USA). The HTRF (665/620) ratio is calculated by EnVision software, the data exported are considered as the total binding. The specific binding is calculated then by subtracting the non-specific signal from the total binding. The Ki and IC₅₀are calculated using the “One site—Fit Ki” and “One site—FitlogIC50” from GraphPad Prism 9 (Graphpad Software, San Diego, CA, USA), respectively.

[9] = molecular target: pm5, modified CCR8 related peptide (human, sulfated tyrosines at Y15 and Y17); assay: ELISA on coated CCR8 peptide (500 ng/mL), OD [cont.]
Summary of the method: (§1)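 Binding is scored by optical density: plates carry 500 ng/mL peptide in carbonate/bicarbonate buffer, receive mAb at 1 μg/mL or diluted 1/10 for 90 min at room temperature, then TMB for 15 min.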

[10] = molecular target: pm4, modified CCR8 related peptide (human, sulfated tyrosines at Y15 and Y16); assay: as above
Summary of the method: as §1

[11] = molecular target: pm2, modified CCR8 related peptide (human, sulfated tyrosine at Y16); assay: as above
Summary of the method: as §1

[12] = molecular target: pm3, modified CCR8 related peptide (human, sulfated tyrosine at Y17); assay: as above
Summary of the method: as §1

[13] = molecular target: T3, pwt1, unmodified CCR8 related peptide (human, none (non-sulfated Y15, Y16, Y17)); assay: as above
T3 construct: First 34 amino acids of human CCR8, synthetic; also called unmodified peptide
Summary of the method: as §1

[14] = molecular target: pm8, modified CCR8 related peptide (human, sulfated tyrosines at Y15, Y16 and Y17); assay: as above
Summary of the method: as §1

[15] = molecular target: pm1, modified CCR8 related peptide (human, sulfated tyrosine at Y15); assay: as above
Summary of the method: as §1

[16] = molecular target: pm6, modified CCR8 related peptide (human, sulfated tyrosines at Y16 and Y17); assay: as above
Summary of the method: as §1

hCCR8 SNAP-tag [17] = molecular target: T2, hCCR8 SNAP-tag; assay: cell-based or functional assay
human CCR8 [18] = molecular target: T1, human CCR8; assay: cell-based or functional assay; remark: listed apart in the source

pm8, modified CCR8 related peptide (human, sulfated tyrosines at Y15, Y16 and Y17), sequence (peptide, as listed by the source): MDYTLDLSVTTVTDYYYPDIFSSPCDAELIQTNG
pm1, modified CCR8 related peptide (human, sulfated tyrosine at Y15), sequence (peptide, as listed by the source): as above
pm4, modified CCR8 related peptide (human, sulfated tyrosines at Y15 and Y16), sequence (peptide, as listed by the source): as above
pm2, modified CCR8 related peptide (human, sulfated tyrosine at Y16), sequence (peptide, as listed by the source): as above
pm5, modified CCR8 related peptide (human, sulfated tyrosines at Y15 and Y17), sequence (peptide, as listed by the source): as above
pm6, modified CCR8 related peptide (human, sulfated tyrosines at Y16 and Y17), sequence (peptide, as listed by the source): as above
pm3, modified CCR8 related peptide (human, sulfated tyrosine at Y17), sequence (peptide, as listed by the source): as above
T3 sequence (peptide, as listed by the source): as above

Row | Binder | Top plateau values in presence of 5 µg/mL mAb (% of hCCL1 (100 nM)), protocol #3 (human CCR8 [1]) | IC50, CCL1 induced hCCR8 Gi2 signaling (BRET, HEK-293) (human CCR8 [2]) | IC50 (human CCR8 [4]) | hCCL1 (100 nM) residual response in %, Protocol #2, mAb 0.08 µg/mL (0.53 nM) (human CCR8 [5]) | hCCL1 (100 nM) residual response in %, Protocol #2, mAb 0.4 µg/mL (2.67 nM) (human CCR8 [5]) | hCCL1 (100 nM) residual response in %, Protocol #2, mAb 10 µg/mL (66.7 nM) (human CCR8 [5]) | hCCL1 (100 nM) residual response in %, Protocol #3, mAb 0.05 µg/mL (0.33 nM) (human CCR8 [5]) | hCCL1 (100 nM) residual response in %, Protocol #3, mAb 0.5 µg/mL (3.33 nM) (human CCR8 [5]) | hCCL1 (100 nM) residual response in %, Protocol #3, mAb 5 µg/mL (33.3 nM) (human CCR8 [5]) | % positive cells (human CCR8 [6]) | MFI fold change to isotype ctrl (human CCR8 [6]) | binding result [9] | binding result [10] | binding result [11] | binding result [12] | binding result [13] | binding result [14] | binding result [15] | binding result [16] | other results
1 | B1 | 292% | 0.092 µg/mL and 0.616 nM | 6.41 µg/mL and 43 nM | 97% | 96% | 84% | 96% | 81% | 73% | 34.7% | 2.34 fold | – | – | – | – | – | – | – | – | IC50, CCL1 induced hCCR8 Gi2 signaling (BRET) at pH 6.5 (human CCR8 [3]): 0.162 µg/ml and 1.08 nM; IC50, CCL1 induced hCCR8 Gi2 signaling (BRET) at pH 7.4 (human CCR8 [3]): 0.152 µg/ml and 1.01 nM
2 | B2 | – | 0.022 µg/mL and 0.147 nM | – | 67% | 55% | 32% | 86% | 60% | 42% | – | – | binds | binds | binds | binds | binds | binds | binds | binds | % of labelled cells (human CCR8 [7]): 96%; IC50 (hCCR8 SNAP-tag [8]): 0.04 µg/mL; Ki (hCCR8 SNAP-tag [8]): 0.02 µg/mL; % of internalization at 1 µg/ml (CCL1 at 300 nM = 100%), HTRF (hCCR8 SNAP-tag [17]): 44%; % of internalization at 10 µg/ml (CCL1 at 300 nM = 100%), HTRF (hCCR8 SNAP-tag [17]): 29%; ADCC % Max lysis, HUT78 targets, NK cells Donor 3 (human CCR8 [18]): 15%; ADCC % Max lysis, HUT78 targets, NK cells Donor 4 (human CCR8 [18]): 16%; ADCC EC50, HUT78 targets, NK cells Donor 3 (human CCR8 [18]): 505 pM; ADCC EC50, HUT78 targets, NK cells Donor 4 (human CCR8 [18]): 573 pM
3 | B3 | 855% | 0.046 µg/mL and 0.306 nM | 0.6 µg/mL and 4.01 nM | 104% | 46% | 28% | 80% | 57% | 45% | 56.2% | 4.78 fold | binds | binds | binds | binds | binds | binds | binds | binds | –
